Substrate in data set [1]: CSCC[C@H](N)C(=O)N[C@@H](C)C(=O)N[C@@H](CO)C(=O)O
Put plainly: Methionine aminopeptidase activity assay (methionine release from tripeptide, coupled L-amino acid oxidase/Amplex Red). Format: biochemical, human. As to conditions: other: hydrolysis of methionine from MAS peptide substrate; pH 7.5.

Substrate in data set [2]: CSCC[C@H](N)C(=O)N[C@@H](C)C(=O)N[C@@H](CO)C(=O)O
Put plainly: purified protein, by the assay type. As to conditions: other: hydrolysis of methionine from MAS peptide substrate; pH 7.5.

B1: recombinant human MetAP-3 (Homo sapiens) (protein)
chain: SSPLNHIYLHKQSSSQQRRNFFFRRQRDISHSIVLPAAVSSAHPVPKHIKKPDYVTTGIVPDWGDSIEVKNEDQIQGLHQACQLARHVLLLAGKSLKVDMTTEEIDALVHREIISHNAYPSPLGYGGFPKSVCTSVNNVLCHGIPDSRPLQDGDIINIDVTVYYNGYHGDTSETFLVGNVDECGKKLVEVARRCRDEAIAACRAGAPFSVIGNTISHITHQNGFQVCPHFVGHGIGSYFHGHPEIWHHANDSDLPMEEGMAFTIEPIITEGSPEFKVLEDAWTVVSLDNQRSAQFEHTVLITSRGAQILTKLPHEA
notes: The coding region of hMetAP-3 was also cloned into the EcoRI/HindIII sites of the pET43a vector and expressed as a fusion protein; NusA (N, cleaved yes); 6xHis (N, cleaved yes); made in house; host or cells: E. coli Tuner (DE3)plysS, pET43a
As to B1, in data set [1], the Km (usually the concentration of substrate that gives half-maximal velocity) came out at 0.6 mM and the kcat (usually the maximal rate divided by the concentration of active sites) is 0.06 s⁻¹.

B2: recombinant human MetAP-2 (Homo sapiens) (protein)
chain: MAGVEEVAASGSHLNGDLDPDDREEGAASTAEEAAKKKRRKKKKSKGPSAAGEQEPDKESGASVDEVARQLERSALEDKERDEDDEDGDGDGDGATGKKKKKKKKKRGPKVQTDPPSVPICDLYPNGVFPKGQECEYPPTQDGRTAAWRTTSEEKKALDQASEEIWNDFREAAEAHRQVRKYVMSWIKPGMTMIEICEKLEDCSRKLIKENGLNAGLAFPTGCSLNNCAAHYTPNAGDTTVLQYDDICKIDFGTHISGRIIDCAFTVTFNPKYDTLLKAVKDATNTGIKCAGIDVRLCDVGEAIQEVMESYEVEIDGKTYQVKPIRNLNGHSIGQYRIHAGKTVPIVKGGEATRMEEGEVYAIETFGSTGKGVVHDDMECSHYMKNFDVGHVPIRLPRTKHLLNVINENFGTLAFCRRWLDRLGESKYLMALKNLCDLGIVDPYPPLCDIKGSYTAQFEHTILLRPTCKEVVSRGDDY
Turning to B2, in data set [2], the Km is recorded as 0.3 mM and the kcat was found to be 2.3 s⁻¹.
